Measured values: patent US20220064275A1 (SCHOLAR ROCK, published 2022)
Where a chain is given by its changes, count along the chain named. Blank lines part the entries; values can stand above or below the binder they belong to.

Legend:
[1] = target: T1, human LTBP1-proTGFβ1 complex (human, UniProt Q14766 873-1507); assay: BLI (Octet)
T1 construct: range 873-1507; biotinylated in Octet and MSD-SET; also called hLTBP1-proTGFβ1; hLTBP1

[2] = target: T2, human LTBP3-proTGFβ1 complex (human, UniProt Q9NS15 866-1039); assay: BLI (Octet)
T2 construct: range 866-1039; also called hLTBP3-proTGFβ1; hLTBP3
T2 sequence (Q9NS15 866-1039 limits assumed, chain 1 of 2): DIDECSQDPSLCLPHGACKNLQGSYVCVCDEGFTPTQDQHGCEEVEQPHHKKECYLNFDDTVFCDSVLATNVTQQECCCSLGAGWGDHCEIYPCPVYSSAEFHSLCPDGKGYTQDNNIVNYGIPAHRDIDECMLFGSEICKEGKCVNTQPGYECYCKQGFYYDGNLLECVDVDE
T2 sequence (chain, as listed by the source limits assumed, chain 2 of 2): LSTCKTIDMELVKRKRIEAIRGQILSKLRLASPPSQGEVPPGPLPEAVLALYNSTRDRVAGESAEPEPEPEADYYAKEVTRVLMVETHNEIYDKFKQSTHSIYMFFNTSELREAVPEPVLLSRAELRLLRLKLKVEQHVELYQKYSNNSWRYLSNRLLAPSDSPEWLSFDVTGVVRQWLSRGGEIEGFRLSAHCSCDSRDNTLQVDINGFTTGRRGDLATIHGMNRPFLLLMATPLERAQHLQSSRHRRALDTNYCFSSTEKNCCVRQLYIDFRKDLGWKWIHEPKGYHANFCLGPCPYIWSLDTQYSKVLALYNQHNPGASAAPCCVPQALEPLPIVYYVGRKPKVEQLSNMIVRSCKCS

[3] = target: T3, human GARP-proTGFβ1 complex (human, UniProt Q14392 20-627; P01137 30-390); assay: BLI (Octet)
T3 construct: also called hGARP-proTGFβ1; hGARP

[4] = target: T4, human LRRC33-proTGFβ1 complex (human, UniProt Q86YC3 19-650; P01137 30-390); assay: BLI (Octet)
T4 construct: also called hLRRC33-proTGFβ1; hLRRC33
T4 sequence (Q86YC3 other isoform, or with tags, fused parts or gaps limits assumed, chain 1 of 2): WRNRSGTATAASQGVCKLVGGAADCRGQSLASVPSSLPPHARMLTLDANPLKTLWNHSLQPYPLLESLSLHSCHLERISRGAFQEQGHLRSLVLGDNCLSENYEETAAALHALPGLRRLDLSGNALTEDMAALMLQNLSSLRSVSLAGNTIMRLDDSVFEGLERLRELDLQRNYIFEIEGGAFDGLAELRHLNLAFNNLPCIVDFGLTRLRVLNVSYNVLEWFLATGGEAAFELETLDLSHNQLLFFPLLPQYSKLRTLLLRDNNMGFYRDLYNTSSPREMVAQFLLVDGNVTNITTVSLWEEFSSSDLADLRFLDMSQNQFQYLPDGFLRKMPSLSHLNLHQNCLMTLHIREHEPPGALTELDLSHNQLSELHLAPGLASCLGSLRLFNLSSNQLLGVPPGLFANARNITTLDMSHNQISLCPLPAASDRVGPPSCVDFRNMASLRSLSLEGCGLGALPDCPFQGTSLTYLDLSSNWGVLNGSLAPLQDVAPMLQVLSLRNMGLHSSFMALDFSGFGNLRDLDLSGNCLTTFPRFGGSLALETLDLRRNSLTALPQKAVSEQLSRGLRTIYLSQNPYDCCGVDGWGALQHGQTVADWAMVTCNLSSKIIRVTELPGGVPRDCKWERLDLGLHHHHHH
T4 sequence (P01137 30-390 limits assumed, chain 2 of 2): as the sequence (chain, as listed by the source limits assumed, chain 2 of 2) above

[5] = target: hLTBP1-proTGFβ1 complex made by transfected cells (cell-based potency assay) (human, UniProt Q14766 347-1721; P01137 30-390); assay: cell-based or functional assay
Chain of hLTBP1-proTGFβ1 complex made by transfected cells (cell-based potency assay) (Q14766 347-1721, chain 1 of 2): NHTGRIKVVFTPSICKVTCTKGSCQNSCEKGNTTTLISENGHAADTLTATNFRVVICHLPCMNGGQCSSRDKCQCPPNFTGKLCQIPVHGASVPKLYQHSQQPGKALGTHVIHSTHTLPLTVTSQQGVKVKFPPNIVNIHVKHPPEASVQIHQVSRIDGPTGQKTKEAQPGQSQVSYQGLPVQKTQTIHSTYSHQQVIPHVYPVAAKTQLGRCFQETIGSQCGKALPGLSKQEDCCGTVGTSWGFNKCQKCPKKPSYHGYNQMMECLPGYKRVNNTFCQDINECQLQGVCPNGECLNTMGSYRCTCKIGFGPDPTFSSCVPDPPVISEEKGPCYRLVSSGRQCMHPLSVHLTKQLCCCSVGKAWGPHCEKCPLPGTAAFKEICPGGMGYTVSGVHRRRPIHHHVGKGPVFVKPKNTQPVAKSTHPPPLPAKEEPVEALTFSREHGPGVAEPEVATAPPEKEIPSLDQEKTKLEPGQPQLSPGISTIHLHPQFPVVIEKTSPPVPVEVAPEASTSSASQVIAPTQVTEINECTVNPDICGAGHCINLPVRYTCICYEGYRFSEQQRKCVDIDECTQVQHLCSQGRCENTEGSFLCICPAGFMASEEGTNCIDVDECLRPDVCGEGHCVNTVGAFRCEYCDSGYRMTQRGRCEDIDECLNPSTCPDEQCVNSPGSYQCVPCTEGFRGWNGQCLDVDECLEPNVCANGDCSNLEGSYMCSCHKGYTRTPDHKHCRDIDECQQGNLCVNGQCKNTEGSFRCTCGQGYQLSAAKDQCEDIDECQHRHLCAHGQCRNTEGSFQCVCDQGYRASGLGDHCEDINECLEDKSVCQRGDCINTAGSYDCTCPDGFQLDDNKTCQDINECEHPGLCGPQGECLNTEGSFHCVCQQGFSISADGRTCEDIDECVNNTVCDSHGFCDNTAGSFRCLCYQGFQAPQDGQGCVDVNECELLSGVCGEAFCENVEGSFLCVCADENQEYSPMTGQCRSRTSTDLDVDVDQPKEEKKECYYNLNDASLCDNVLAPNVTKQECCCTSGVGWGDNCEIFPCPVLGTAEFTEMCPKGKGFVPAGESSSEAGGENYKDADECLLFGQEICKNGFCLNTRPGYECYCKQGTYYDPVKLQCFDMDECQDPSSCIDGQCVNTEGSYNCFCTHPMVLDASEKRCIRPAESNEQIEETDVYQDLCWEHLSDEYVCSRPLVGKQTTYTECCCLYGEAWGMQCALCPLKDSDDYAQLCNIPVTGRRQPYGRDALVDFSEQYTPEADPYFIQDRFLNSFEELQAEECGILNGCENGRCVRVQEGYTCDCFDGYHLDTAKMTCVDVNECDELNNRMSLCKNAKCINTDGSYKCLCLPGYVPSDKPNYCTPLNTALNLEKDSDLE
Chain of hLTBP1-proTGFβ1 complex made by transfected cells (cell-based potency assay) (P01137 30-390, chain 2 of 2): as the sequence (chain, as listed by the source limits assumed, chain 2 of 2) above

[6] = target: hLTBP3-proTGFβ1 complex made by transfected cells (cell-based potency assay) (human, UniProt Q9NS15 44-1303; P01137 30-390); assay: cell-based or functional assay
[7] = target: hGARP-proTGFβ1 complex on cells (human, UniProt Q14392 20-662; P01137 30-390); assay: cell-based or functional assay
[8] = target: hLRRC33-proTGFβ1 complex on cells (human, UniProt Q86YC3 19-692; P01137 30-390); assay: cell-based or functional assay
Chain of hLRRC33-proTGFβ1 complex on cells (Q86YC3 19-692 limits assumed, chain 1 of 2): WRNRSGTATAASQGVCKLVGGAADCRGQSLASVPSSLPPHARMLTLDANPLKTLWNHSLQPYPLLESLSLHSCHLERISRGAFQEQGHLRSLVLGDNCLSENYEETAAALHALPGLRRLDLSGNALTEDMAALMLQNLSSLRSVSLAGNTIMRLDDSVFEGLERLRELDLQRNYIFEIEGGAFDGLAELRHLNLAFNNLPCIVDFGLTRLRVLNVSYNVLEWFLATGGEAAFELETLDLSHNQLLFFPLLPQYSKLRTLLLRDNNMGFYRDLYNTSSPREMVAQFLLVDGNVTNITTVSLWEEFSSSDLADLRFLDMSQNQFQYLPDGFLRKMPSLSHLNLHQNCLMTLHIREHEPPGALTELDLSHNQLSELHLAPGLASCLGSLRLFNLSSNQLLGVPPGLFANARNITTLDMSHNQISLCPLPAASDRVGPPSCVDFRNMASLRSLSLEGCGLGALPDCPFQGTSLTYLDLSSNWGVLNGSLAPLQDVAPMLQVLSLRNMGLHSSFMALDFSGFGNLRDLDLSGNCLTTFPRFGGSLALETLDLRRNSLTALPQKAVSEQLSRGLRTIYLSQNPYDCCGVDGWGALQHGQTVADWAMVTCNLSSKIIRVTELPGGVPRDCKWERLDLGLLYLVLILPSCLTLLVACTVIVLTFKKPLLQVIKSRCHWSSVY
Chain of hLRRC33-proTGFβ1 complex on cells (P01137 30-390 limits assumed, chain 2 of 2): as the sequence (chain, as listed by the source limits assumed, chain 2 of 2) above

[9] = target: T1, human LTBP1-proTGFβ1 complex; assay: MSD-SET, solution equilibrium titration
Experimental: (§1) MSD-SET assays were performed to measure affinities of the antibodies at equilibrium. Briefly, each test antibody was diluted 3-5 fold and samples were mixed with biotinylated antigen in a 48-well dish. The SET samples were equilibrated for 20-24 hours at room temperature. Meanwhile, a capture plate was coated with IgG (20 nM) and incubated overnight at 4° C. or 30 minutes at room temperature, followed by a blocking step with 5% BSA. After the capture plate was washed three times, SET samples were added and incubated for 150 seconds. The plate was washed once to remove unbound complexes. 250 ng/ml SA-Sulfotag was added then washed 3 times. 2× Read Buffer was added, and signals from the labeled bound complexes were read with the use of QuickPlex™ SQ 120 instrument.

[10] = target: T2, human LTBP3-proTGFβ1 complex; assay: MSD-SET, solution equilibrium titration
Experimental: as §1

[11] = target: T3, human GARP-proTGFβ1 complex; assay: MSD-SET, solution equilibrium titration
Experimental: as §1

[12] = target: T4, human LRRC33-proTGFβ1 complex; assay: MSD-SET, solution equilibrium titration
Experimental: as §1

[13] = target: T5, murine GARP-proTGFβ1 complex (mouse, UniProt G3XA59 18-628; P04202 30-390); assay: BLI screen of human and murine LLCs
T5 construct: Soluble murine complex; also called mGARP-proTGFβ1

human proTGFβ1 C4S = target: T6, human proTGFβ1 C4S (human, UniProt P01137 30-390); assay: HDX-MS
T6 construct: Small latent complex without presenting molecule; the cysteine that links to presenting molecules is changed to serine; also called small latent complex proTGFβ1 C4S; latent TGFβ1
T6 sequence (P01137 other isoform, or with tags, fused parts or gaps): as the sequence (chain, as listed by the source limits assumed, chain 2 of 2) above, with C4S counted along it
Experimental: In the non-deuterated experiments, each sample was mixed with sample buffer (1:15, v/v) at room temperature, then mixed with 1:1 (v/v) quenching buffer (100 mM sodium phosphate, 4 M guanidine HCl, 0.5 M TCEP) at 0° C. Quenched samples were immediately injected into a nanoACQUITY UPLC™ system with HDX technology (Waters Corp., Milford, Mass., USA) for on-column pepsin digestion. The eluent was directed into a SYNAPT® G2 HDMS mass spectrometer (Waters Corp., Milford, Mass., USA) for analysis in MSE mode. For H/D exchange experiments, each sample was mixed with labeling buffer (20 mM HEPES, 150 mM NaCl in deuterium oxide, pD 7.5) (1:15, v/v) to start the labeling reactions at 25° C. Five aliquots of each sample were labeled at various time intervals: 10 s, 1 min, 10 min, 1 h, and 2 h. At the end of each labeling time point, the reaction was quenched by adding 1:1 (v/v) quenching buffer, and the quenched samples were injected into the Waters H/DX-MS system for analysis. Between each sample run, a clean blank was run by injecting pepsin wash buffer (1.5 M guanidine HCl, 4% acetonitrile, 0.8% formic acid) into the H/DX-MS system.
In HDX-MS, the regions of an antigen that are tightly bound by an antibody are protected from proton exchange, due to protein-protein interaction, while regions that are exposed to solvent can readily undergo proton exchange. […]

Kd [1]: 0.167 nM | Kd [2]: 0.154 nM | Kd [3]: 0.842 nM | Kd [4]: 0.555 nM | IC50, reporter cell assay of TGFβ1 activation [5]: 2.95 nM | IC50, reporter cell assay of TGFβ1 activation [6]: 1.56 nM | IC50, reporter cell assay of TGFβ1 activation [7]: 0.79 nM | IC50, reporter cell assay of TGFβ1 activation [8]: 1.27 nM | Kd [9]: 1.2 nM | Kd [10]: 1.2 nM | Kd [11]: 3 nM | Kd [12]: 6.3 nM
B1: Ab11 (antibody, IgG4, V domains shown)
VH: EVQLLESGGGLVQPGGSLRLSCAASGFTFRNYAMSWVRQAPGKGLEWVSSISGSGGATYYADSVKGRFTISRDNSKNTLYLQMNSLRAEDTAVYYCARVSSGHWDFDYWGQGTLVTVSS
VL: DIQLTQSPSSLSASVGDRVTITCRASQSISSYLNWYQQKPGKAPKLLIYAASNLQSGVPSRFSGSGSGTDFTLTISSLQPEDFATYYCQQTYTVPLTFGGGTKVEIK

Kd [1]: 0.159 nM | Kd [2]: 0.169 nM | Kd [3]: 7.37 nM | Kd [4]: 0.545 nM | IC50, reporter cell assay of TGFβ1 activation [5]: 6.25 nM | IC50, reporter cell assay of TGFβ1 activation [6]: 2.71 nM | IC50, reporter cell assay of TGFβ1 activation [7]: 3.71 nM | IC50, reporter cell assay of TGFβ1 activation [8]: 5.37 nM | Kd [9]: 0.27 nM | Kd [10]: 0.26 nM | Kd [11]: 1.1 nM | Kd [12]: 1.1 nM
B2: Ab35 (antibody, IgG4, V domains shown)
VH: B1 VH with G102Y, H103L
VL: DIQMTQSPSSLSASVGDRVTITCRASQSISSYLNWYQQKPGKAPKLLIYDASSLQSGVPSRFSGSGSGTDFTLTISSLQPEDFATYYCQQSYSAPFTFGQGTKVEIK

Kd [1]: 0.157 nM | Kd [2]: 0.183 nM | Kd [3]: 7.01 nM | Kd [4]: 0.775 nM | IC50, reporter cell assay of TGFβ1 activation [5]: 3.79 nM | IC50, reporter cell assay of TGFβ1 activation [6]: 1.55 nM | IC50, reporter cell assay of TGFβ1 activation [7]: 1.08 nM | IC50, reporter cell assay of TGFβ1 activation [8]: 2.43 nM | Kd [9]: 0.78 nM | Kd [10]: 0.66 nM | Kd [11]: 1.7 nM | Kd [12]: 3.2 nM
B3: Ab12 (antibody, IgG4, V domains shown)
VH: B1 VH with E1Q, L5V, L11V, G16R, R30S, N31D, S35V, S50A, G56F, A57T
VL: B1 VL

Kd [1]: 0.189 nM | Kd [2]: 0.156 nM | Kd [3]: 11.2 nM | Kd [4]: 0.692 nM | IC50, reporter cell assay of TGFβ1 activation [5]: 1.66 nM | IC50, reporter cell assay of TGFβ1 activation [6]: 1.6 nM | IC50, reporter cell assay of TGFβ1 activation [7]: 1.34 nM | IC50, reporter cell assay of TGFβ1 activation [8]: 0.401 nM | Kd [9]: 2.1 nM | Kd [10]: 2.7 nM | Kd [11]: 3.8 nM | Kd [12]: 5.7 nM
B4: Ab19 (antibody, IgG4, V domains shown)
VH: QVQLVESGGGVVQPGRSLRLSCAASGFTFSSFAMTWVRQAPGKGLEWVSAISGSGAATYFADSVKGRFTISRDNSKNTLYLQMNSLRAEDTAVYYCARVSSGHWDFDEWGQGTLVTVSS
VL: B1 VL

Kd [1]: 0.192 nM | Kd [2]: 0.131 nM | Kd [3]: 0.884 nM | Kd [4]: 0.545 nM | IC50, reporter cell assay of TGFβ1 activation [5]: 1.85 nM | IC50, reporter cell assay of TGFβ1 activation [6]: 1.18 nM | IC50, reporter cell assay of TGFβ1 activation [7]: 0.387 nM | IC50, reporter cell assay of TGFβ1 activation [8]: 1.35 nM | Kd [9]: 0.22 nM | Kd [10]: 0.18 nM | Kd [11]: 1.1 nM | Kd [12]: 1.6 nM
B5: Ab20 (antibody, IgG4, V domains shown)
VH: B1 VH with R30S, N31A, S35T, S50A, A57V, F106Y
VL: B1 VL

IC50, reporter cell assay of TGFβ1 activation [5]: 5.22 nM | IC50, reporter cell assay of TGFβ1 activation [6]: 5.65 nM | IC50, reporter cell assay of TGFβ1 activation [7]: 0.822 nM | IC50, reporter cell assay of TGFβ1 activation [8]: 3.5 nM | binding result [13]: binds | Kd [9]: 4.6 nM | Kd [10]: 5.5 nM | Kd [11]: 2.5 nM | Kd [12]: 2.1 nM
B6: Ab4 (antibody, IgG4, V domains shown)
VH: EVQLVESGGGLVQPGGSLRLSCAASGFTFSSYSMNWVRQAPGKGLEWVSYISSSSSTIYYADSVKGRFTISRDNAKNSLYLQMNSLRAEDTAVYYCARGVLDYGDMLDPWGQGTLVTVSS
VL: DIQMTQSPSSLSASVGDRVTITCQASQDITNYLNWYQQKPGKAPKLLIYDASNLETGVPSRFSGSGSGTDFTFTISSLQPEDIATYYCQQADNHPPWTFGGGTKVEIK
notes: also called parental lead antibody of Ab6

Kd [1]: 0.318 nM | Kd [2]: 0.329 nM | Kd [3]: 0.974 nM | Kd [4]: 0.415 nM | Kd [9]: 0.05 nM | Kd [10]: 0.033 nM | Kd [11]: 0.027 nM | Kd [12]: 0.2 nM
B7: Ab22 (antibody, IgG4, V domains shown)
VH: B6 VH with S30G, Y32F, S52H, S54D, S55A
VL: B6 VL

Kd [1]: 0.236 nM | Kd [2]: 0.181 nM | Kd [3]: 0.581 nM | Kd [4]: 0.41 nM | Kd [9]: 0.019 nM | Kd [10]: 0.014 nM | Kd [11]: 0.019 nM | Kd [12]: 0.096 nM
B8: Ab31 (antibody, IgG4, V domains shown)
VH: B6 VH with Y32F, N35D, S53P, S54D, S55A, S78T, G99A
VL: B6 VL

binding result (human proTGFβ1 C4S): binds
B9: Ab6 Fab (Fab, V domains shown)
VH: B6 VH with A23T, Y32F, N35D, S53P, S55A, S56D, S78T, D108M
VL: B6 VL
notes: Fab of Ab6

Kd [1]: 0.332 nM | Kd [2]: 0.261 nM | Kd [3]: 0.833 nM | Kd [4]: 0.535 nM | Kd [9]: 0.031 nM | Kd [10]: 0.026 nM | Kd [11]: 0.022 nM | Kd [12]: 0.14 nM
B10: Ab30 (antibody, IgG4, V domains shown)
VH: B6 VH with Y32F, N35D, S53P, S54D, S55A, V100T
VL: B6 VL

Kd [1]: 0.246 nM | Kd [2]: 0.198 nM | Kd [3]: 0.665 nM | Kd [4]: 0.41 nM | Kd [9]: 0.024 nM | Kd [10]: 0.021 nM | Kd [11]: 0.019 nM | Kd [12]: 0.18 nM
B11: Ab24 (antibody, IgG4, V domains shown)
VH: B6 VH with G16R, Y32F, S33A, N35Y, S53P, S54D, S55A
VL: B6 VL

Kd [1]: 0.179 nM | Kd [2]: 0.111 nM | Kd [3]: 0.265 nM | Kd [4]: 0.339 nM | IC50, reporter cell assay of TGFβ1 activation [5]: 1.56 nM | IC50, reporter cell assay of TGFβ1 activation [6]: 1.11 nM | IC50, reporter cell assay of TGFβ1 activation [7]: 0.198 nM | IC50, reporter cell assay of TGFβ1 activation [8]: 0.738 nM | Kd [9]: 0.011 nM | Kd [10]: 0.007 nM | Kd [11]: 0.0078 nM | Kd [12]: 0.046 nM
B12: Ab33 (antibody, IgG4, V domains shown)
VH: B6 VH with Y32F, S53P, S55A, S56D, S78T, R98H
VL: B6 VL

Kd [1]: 0.221 nM | Kd [2]: 0.173 nM | Kd [3]: 0.625 nM | Kd [4]: 0.36 nM | IC50, reporter cell assay of TGFβ1 activation [5]: 0.713 nM | IC50, reporter cell assay of TGFβ1 activation [6]: 0.716 nM | IC50, reporter cell assay of TGFβ1 activation [7]: 0.262 nM | IC50, reporter cell assay of TGFβ1 activation [8]: 0.341 nM | Kd [9]: 0.028 nM | Kd [10]: 0.023 nM | Kd [11]: 0.014 nM | Kd [12]: 0.13 nM
B13: Ab26 (antibody, IgG4, V domains shown)
VH: B6 VH with Y32F, N35D, S53P, S54D, S55A, S78T
VL: B6 VL

Kd [1]: 0.269 nM | Kd [2]: 0.215 nM | Kd [3]: 0.496 nM | Kd [4]: 0.698 nM | Kd [9]: 0.037 nM | Kd [10]: 0.026 nM | Kd [11]: 0.015 nM | Kd [12]: 0.087 nM
B14: Ab32 (antibody, IgG4, V domains shown)
VH: B6 VH with Y32F, S53P, S55A, S56D, S78T, L101W, Y103M
VL: B6 VL

Kd [1]: 0.189 nM | Kd [2]: 0.121 nM | Kd [3]: 0.307 nM | Kd [4]: 0.302 nM | IC50, reporter cell assay of TGFβ1 activation [5]: 0.471 nM | IC50, reporter cell assay of TGFβ1 activation [6]: 0.803 nM | IC50, reporter cell assay of TGFβ1 activation [7]: 0.264 nM | IC50, reporter cell assay of TGFβ1 activation [8]: 0.458 nM | Kd [9]: 0.012 nM | Kd [10]: 0.011 nM | Kd [11]: 0.0055 nM | Kd [12]: 0.043 nM
B15: Ab29 (antibody, IgG4, V domains shown)
VH: B6 VH with G16R, Y32F, S33A, S53P, S54D, S55A, D62G, A97V, G99A
VL: B6 VL
